Patent US9958461B2, “Detection of protein to protein interactions” (THE GOVERNING COUNCIL OF THE UNIVERSITY OF TORONTO, priority 2013, dated 2018)

Tests used:
EGFR-Wt [1] = test: MaMTH EGFR-interactor screen, lentiviral preys against EGFR-wildtype bait (interaction score); type: cell-based, human; conditions: ratio of EGFR-Wt mean to EGFR-L858R mean interaction score
Outline: (§1)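 5×GAL4UAS-luciferase HEK293T reporter cells were lentivirally infected with preys (MOI ~0.3-0.4) and puromycin-selected ≥48 h. They were then transfected in triplicate with the EGFR bait, and luciferase was read 24 h later. Score is fold-change over averaged negative-control preys; >1 denotes interaction.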

EGFR-Wt [2] = target: T1, EGFR-Wt (Homo sapiens, UniProt P00533); test: as above; type: cell-based; conditions: MaMTH interaction score of prey with EGFR-Wt bait, mean
T1 construct: with the advantage of testing full-length integral membrane proteins; (GGGGS)2 linker-Cub (human ubiquitin aa 35-76)-GAL4(1-147)-mNFkB(364-550) (C); expressed in transfected cells
Outline: as §1

EGFR-L858R = target: T2, EGFR-L858R (Homo sapiens, UniProt P00533, L858R); test: MaMTH EGFR-interactor screen, lentiviral preys against EGFR-L858R bait (interaction score); type: cell-based; conditions: MaMTH interaction score of prey with EGFR-L858R bait
T2 construct: with the advantage of testing full-length integral membrane proteins; (GGGGS)2 linker-Cub (human ubiquitin aa 35-76)-GAL4(1-147)-mNFkB(364-550) (C); expressed in transfected cells
Outline: as §1

EGFR-Wt mean (EGFR-Wt [2])	EGFR-L858R mean (EGFR-L858R)	Molecule	Wt/L858R (EGFR-Wt [1])
2.22	2.63	CDH5 (protein, UniProt P33151 48-784, looked up) Cadherin-5: DWIWNQMHIDEEKNTSLPHHVGKIKSSVSRKNAKYLLKGEYVGKVFRVDAETGDVFAIERLDRENISEYHLTAVIVDKDTGENLETPSSFTIKVHDVNDNWPVFTHRLFNASVPESSAVGTSVISVTAVDADDPTVGDHASVMYQILKGKEYFAIDNSGRIITITKSLDREKQARYEIVVEARDAQGLRGDSGTATVLVTLQDINDNFPFFTQTKYTFVVPEDTRVGTSVGSLFVEDPDEPQNRMTKYSILRGDYQDAFTIETNPAHNEGIIKPMKPLDYEYIQQYSFIVEATDPTIDLRYMSPPAGNRAQVIINITDVDEPPIFQQPFYHFQLKENQKKPLIGTVLAMDPDAARHSIGYSIRRTSDKGQFFRVTKKGDIYNEKELDREVYPWYNLTVEAKELDSTGTPTGKESIVQVHIEVLDENDNAPEFAKPYQPKVCENAVHGQLVLQISAIDKDITPRNVKFKFILNTENNFTLTDNHDNTANITVKYGQFDREHTKVHFLPVVISDNGMPSRTGTSTLTVAVCKCNEQGEFTFCEDMAAQVGVSIQAVVAILLCILTITVITLLIFLRRRLRKQARAHGKSVPEIHEQLVTYDEEGGGEMDTTSYDVSVLNSVRRGGAKPPRPALDARPSLYAQVQKPPRHAPGAHGGPGEMAAMIEVKKDEADHDGDGPPYDTLHIYGYEGSESIAESLSSLGTDSSDSDVDYDFLNDWGPRFKMLAELYGSDPREELLY	0.84
0.28	1.83	SOS2 (protein, UniProt Q07890 1-1332, looked up) Son of sevenless homolog 2: MQQAPQPYEFFSEENSPKWRGLLVSALRKVQEQVHPTLSANEESLYYIEELIFQLLNKLCMAQPRTVQDVEERVQKTFPHPIDKWAIADAQSAIEKRKRRNPLLLPVDKIHPSLKEVLGYKVDYHVSLYIVAVLEYISADILKLAGNYVFNIRHYEISQQDIKVSMCADKVLMDMFDQDDIGLVSLCEDEPSSSGELNYYDLVRTEIAEERQYLRELNMIIKVFREAFLSDRKLFKPSDIEKIFSNISDIHELTVKLLGLIEDTVEMTDESSPHPLAGSCFEDLAEEQAFDPYETLSQDILSPEFHEHFNKLMARPAVALHFQSIADGFKEAVRYVLPRLMLVPVYHCWHYFELLKQLKACSEEQEDRECLNQAITALMNLQGSMDRIYKQYSPRRRPGDPVCPFYSHQLRSKHLAIKKMNEIQKNIDGWEGKDIGQCCNEFIMEGPLTRIGAKHERHIFLFDGLMISCKPNHGQTRLPGYSSAEYRLKEKFVMRKIQICDKEDTCEHKHAFELVSKDENSIIFAAKSAEEKNNWMAALISLHYRSTLDRMLDSVLLKEENEQPLRLPSPEVYRFVVKDSEENIVFEDNLQSRSGIPIIKGGTVVKLIERLTYHMYADPNFVRTFLTTYRSFCKPQELLSLLIERFEIPEPEPTDADKLAIEKGEQPISADLKRFRKEYVQPVQLRILNVFRHWVEHHFYDFERDLELLERLESFISSVRGKAMKKWVESIAKIIRRKKQAQANGVSHNITFESPPPPIEWHISKPGQFETFDLMTLHPIEIARQLTLLESDLYRKVQPSELVGSVWTKEDKEINSPNLLKMIRHTTNLTLWFEKCIVEAENFEERVAVLSRIIEILQVFQDLNNFNGVLEIVSAVNSVSVYRLDHTFEALQERKRKILDEAVELSQDHFKKYLVKLKSINPPCVPFFGIYLTNILKTEEGNNDFLKKKGKDLINFSKRRKVAEITGEIQQYQNQPYCLRIEPDMRRFFENLNPMGSASEKEFTDYLFNKSLEIEPRNCKQPPRFPRKSTFSLKSPGIRPNTGRHGSTSGTLRGHPTPLEREPCKISFSRIAETELESTVSAPTSPNTPSTPPVSASSDLSVFLDVDLNSSCGSNSIFAPVLLPHSKSFFSSCGSLHKLSEEPLIPPPLPPRKKFDHDASNSKGNMKSDDDPPAIPPRQPPPPKVKPRVPVPTGAFDGPLHSPPPPPPRDPLPDTPPPVPLRPPEHFINCPFNLQPPPLGHLHRDSDWLRDISTCPNSPSTPPSTPSPRVPRRCYVLSSSQNNLAHPPAPPVPPRQNSSPHLPKLPPKTYKRELSHPPLYRLPLLENAETPQ	0.15
2.33	2.92	SH2D3C (protein, UniProt Q8N5H7 1-860, looked up) SH2 domain-containing protein …: MTEGTKKTSKKFKFFKFKGFGSLSNLPRSFTLRRSSASISRQSHLEPDTFEATQDDMVTVPKSPPAYARSSDMYSHMGTMPRPSIKKAQNSQAARQAQEAGPKPNLVPGGVPDPPGLEAAKEVMVKATGPLEDTPAMEPNPSAVEVDPIRKPEVPTGDVEEERPPRDVHSERAAGEPEAGSDYVKFSKEKYILDSSPEKLHKELEEELKLSSTDLRSHAWYHGRIPREVSETLVQRNGDFLIRDSLTSLGDYVLTCRWRNQALHFKINKVVVKAGESYTHIQYLFEQESFDHVPALVRYHVGSRKAVSEQSGAIIYCPVNRTFPLRYLEASYGLGQGSSKPASPVSPSGPKGSHMKRRSVTMTDGLTADKVTRSDGCPTSTSLPRPRDSIRSCALSMDQIPDLHSPMSPISESPSSPAYSTVTRVHAAPAAPSATALPASPVARRSSEPQLCPGSAPKTHGESDKGPHTSPSHTLGKASPSPSLSSYSDPDSGHYCQLQPPVRGSREWAATETSSQQARSYGERLKELSENGAPEGDWGKTFTVPIVEVTSSFNPATFQSLLIPRDNRPLEVGLLRKVKELLAEVDARTLARHVTKVDCLVARILGVTKEMQTLMGVRWGMELLTLPHGRQLRLDLLERFHTMSIMLAVDILGCTGSAEERAALLHKTIQLAAELRGTMGNMFSFAAVMGALDMAQISRLEQTWVTLRQRHTEGAILYEKKLKPFLKSLNEGKEGPPLSNTTFPHVLPLITLLECDSAPPEGPEPWGSTEHGVEVVLAHLEAARTVAHHGGLYHTNAEVKLQGFQARPELLEVFSTEFQMRLLWGSQGASSSQARRYEKFDKVLTALSHKLEPAVRSSEL	0.80
9.27	11.76	ANKS1A (protein, UniProt Q92625 2-1134, looked up) Ankyrin repeat and SAM …: GKEQELLEAARTGHLPAVEKLLSGKRLSSGFGGGGGGGSGGGGGGSGGGGGGLGSSSHPLSSLLSMWRGPNVNCVDSTGYTPLHHAALNGHKDVVEVLLRNDALTNVADSKGCYPLHLAAWKGDAQIVRLLIHQGPSHTRVNEQNNDNETALHCAAQYGHTEVVKVLLEELTDPTMRNNKFETPLDLAALYGRLEVVKMLLNAHPNLLSCNTKKHTPLHLAARNGHKAVVQVLLDAGMDSNYQTEMGSALHEAALFGKTDVVQILLAAGTDVNIKDNHGLTALDTVRELPSQKSQQIAALIEDHMTGKRSTKEVDKTPPPQPPLISSMDSISQKSQGDVEKAVTELIIDFDANAEEEGPYEALYNAISCHSLDSMASGRSSDQDSTNKEAEAAGVKPAGVRPRERPPPPAKPPPDEEEEDHIDKKYFPLTASEVLSMRPRIHGSAAREEDEHPYELLLTAETKKVVLVDGKTKDHRRSSSSRSQDSAEGQDGQVPEQFSGLLHGSSPVCEVGQDPFQLLCTAGQSHPDGSPQQGACHKASMQLEETGVHAPGASQPSALDQSKRVGYLTGLPTTNSRSHPETLTHTASPHPGGAEEGDRSGARSRAPPTSKPKAELKLSRSLSKSDSDLLTCSPTEDATMGSRSESLSNCSIGKKRLEKSPSFASEWDEIEKIMSSIGEGIDFSQERQKISGLRTLEQSVGEWLESIGLQQYESKLLLNGFDDVHFLGSNVMEEQDLRDIGISDPQHRRKLLQAARSLPKVKALGYDGNSPPSVPSWLDSLGLQDYVHSFLSSGYSSIDTVKNLWELELVNVLKVQLLGHRKRIIASLADRPYEEPPQKPPRFSQLRCQDLLSQTSSPLSQNDSCTGRSADLLLPPGDTGRRRHDSLHDPAAPSRAERFRIQEEHREAKLTLRPPSLAAPYAPVQSWQHQPEKLIFESCGYEANYLGSMLIKDLRGTESTQDACAKMRKSTEHMKKIPTIILSITYKGVKFIDASNKNVIAEHEIRNISCAAQDPEDLCTFAYITKDLQTSHHYCHVFSTVDVNLTYEIILTLGQAFEVAYQLALQAQKSRATGASAAEMIETKSSKPVPKPRVGVRKSALEPPDMDQDAQSHASVSWVVDPKPDSKRSLSTN	0.79
3.00	3.63	CTNND1 (protein, UniProt O60716 1-968, looked up) Catenin delta-1: MDDSEVESTASILASVKEQEAQFEKLTRALEEERRHVSAQLERVRVSPQDANPLMANGTLTRRHQNGRFVGDADLERQKFSDLKLNGPQDHSHLLYSTIPRMQEPGQIVETYTEEDPEGAMSVVSVETSDDGTTRRTETTVKKVVKTVTTRTVQPVAMGPDGLPVDASSVSNNYIQTLGRDFRKNGNGGPGPYVGQAGTATLPRNFHYPPDGYSRHYEDGYPGGSDNYGSLSRVTRIEERYRPSMEGYRAPSRQDVYGPQPQVRVGGSSVDLHRFHPEPYGLEDDQRSMGYDDLDYGMMSDYGTARRTGTPSDPRRRLRSYEDMIGEEVPSDQYYWAPLAQHERGSLASLDSLRKGGPPPPNWRQPELPEVIAMLGFRLDAVKSNAAAYLQHLCYRNDKVKTDVRKLKGIPVLVGLLDHPKKEVHLGACGALKNISFGRDQDNKIAIKNCDGVPALVRLLRKARDMDLTEVITGTLWNLSSHDSIKMEIVDHALHALTDEVIIPHSGWEREPNEDCKPRHIEWESVLTNTAGCLRNVSSERSEARRKLRECDGLVDALIFIVQAEIGQKDSDSKLVENCVCLLRNLSYQVHREIPQAERYQEAAPNVANNTGPHAASCFGAKKGKDEWFSRGKKPIEDPANDTVDFPKRTSPARGYELLFQPEVVRIYISLLKESKTPAILEASAGAIQNLCAGRWTYGRYIRSALRQEKALSAIADLLTNEHERVVKAASGALRNLAVDARNKELIGKHAIPNLVKNLPGGQQNSSWNFSEDTVISILNTINEVIAENLEAAKKLRETQGIEKLVLINKSGNRSEKEVRAAALVLQTIWGYKELRKPLEKEGWKKSDFQVNLNNASRSQSSHSYDDSTLPLIDRNQKSDKKPDREEIQMSNMGSNTKSLDNNYSTPNERGDHNRTLDRSGDLGDMEPLKGTTPLMQDEGQESLEEELDVLVLDDEGGQVSYPSMQKI	0.83
1.86	2.14	CAV1 (protein, UniProt Q03135 2-178, looked up) Caveolin-1: SGGKYVDSEGHLYTVPIREQGNIYKPNNKAMADELSEKQVYDAHTKEIDLVNRDPKHLNDDVVKIDFEDVIAEPEGTHSFDGIWKASFTTFTVTKYWFYRLLSALFGIPMALIWGIYFAILSFLHIWAVVPCIKSFLIEIQCISRVYSIYVHTVCDPLFEAVGKIFSNVRINLQKEI	0.87
